These results are taken from patent US20230331827A1, “POTASSIUM CHANNEL INHIBITORS” (priority 2017, published 2023).

Read-outs that look alike come from different tables or passages of the source.

Usually IC50 stands for the concentration that inhibits the measured activity by half.

The target of one test is T1, human Kv1.3 (huKv1.3) (Homo sapiens, UniProt P22001).
T1 construct: host or cells: CHO
The test can be described thus: QPatch automated patch-clamp, CHO cells stably expressing human Kv1.3 (Examples 19-21). In kind it is cell-based. In a few lines: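 Whole-cell currents were recorded in extracellular solution of 145 mM NaCl, 4 mM KCl, 2 mM CaCl2, 1 mM MgCl2, 10 mM HEPES, 10 mM glucose (pH 7.4), with a KF/KCl/EGTA pipette solution (pH 7.2). From -80 mV, +30 mV pulses of 300 ms were applied every 10 s, with four ascending KnotBody concentrations added extracellularly. Peak outward current was averaged (n = 3-6) and IC50 fitted from concentration-response curves.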
In general terms: The patch-clamp technique gives a direct electrical read-out from membranes.

Another test concerns the target T2, human Kv1.1 (huKv1.1) (Homo sapiens, UniProt Q09470).
T2 construct: expressed in transfected cells; host or cells: Freestyle CHO-S
Nature of the test: QPatch automated patch-clamp, CHO-S cells expressing huKv1.1 (Examples 20-21). The test is classed as cell-based. The note with it: four-point curves of FIG. 33, Table E20. The protocol:
1. The effect of these KnotBodies on cells expressing human Kv1.1 (huKv1.1) and Kv1.3 (huKv1.3) channels was assessed using QPatch automated patch-clamp platform (Sophion).
To generate huKv1.1 expressing cells, Freestyle CHO-S cells (Cat. no. R80007, Life Technologies, California, USA) were transfected with pINT50-Tr plasmid encoding huKv1.1 gene using the MaxCyte STX (MaxCyte) transfection system. In pINT50-Tr plasmid, huKv1.1 gene is under the control of a CMV promoter. 64 µg of the plasmid DNA were added to 400 µl of Freestyle CHO-S cells (at a density of 1 × 10^8 cells/ml) in Electroporation Buffer (GE Healthcare Life Sciences, Cat. no. EPB1) in an OC-400 processing assembly (MaxCyte). Following electroporation, the cells were transferred to a well of a 24-well plate containing 200 U/ml DNAse I (Sigma, D4263) and incubated for 20 minutes at 37° C. and 5% CO2. The cells were then transferred into a 100 ml shaker flask containing 20 ml of CD Opticho Media (Thermo Fisher Scientific, Cat.No 12681-011,) supplemented with 8 mM L-Glut (Thermo Fisher Scientific, cat. no. 25030-024). The cells were incubated for 24 hours at 37° C. and 5% CO2 (and 75% humidity and shaking at 800 rpm) prior to testing using automated patch clamp electrophysiology.
For the testing of Kv1.1 and Kv1.3, CHO-S expressing huKv1.1 (described above) or CHO cells stably expressing huKv1.3 (Charles River Lab) were analysed using the QPatch electrophysiology assay in the presence or absence of the KnotBody fusions. Internal and external physiological solutions were freshly prepared prior to the assay. The extracellular solution contained 145 mM NaCl, 4 mM KC1, 2 mM CaC12, 1 mM MgC12, 10 mM HEPES and 10 mM glucose; the pH was adjusted to 7.4 with NaOH; the osmolarity was ~ 305 mOsm/L. The intracellular solution contained: KF (120 mM), KC1 (20 mM), HEPES (10 mM) EGTA (10 mM); the pH was adjusted to 7.2 with KOH; osmolarity was ~ 300 mOsm/L.
A series of depolarising voltage (channel activating) pulses were used to monitor the channel currents upon adding control (extracellular solution) to define a control baseline of current activity. To these measured control currents four, ascending concentrations of KnotBodies (including previously described KB_A12_ShK and KB_A12_KTX described in Example 8) or parental antibody isotypes (control molecules) were applied to the external bathing solution. KnotBodies KB_A12 and KB_A07 (EETI-II fusions) were used as isotype controls for the testing. From a holding voltage of -80 mV a depolarising, activating voltage pulses of […] were applied for 300 ms, every 10 seconds. The elicited, maximum outward current values measured during the activating step for each solution exchange period, averaged (n = 3 - 6 for each concentration applied) and plotted as concentration-response curves (see FIG. 33). From these concentration-response curves IC50 values were calculated (see Table E20).
For the testing of Kv1.1 and Kv1.3, CHO-S expressing huKv1.1 (see Example 20 and below) or CHO cells stably expressing huKv1.3 (Charles River Lab) were analysed using the QPatch electrophysiology assay in the presence or absence of the KnotBody fusions - see details in Examples 19 and 20.
In addition to the CHO-S transiently expressing huKv1.1 (described in Example 20), CHO-S cells with poly-clonal stable expression of huKv1.1 cells were also made and used in the QPatch electrophysiology assay. To generate the polyclonal stable huKv1.1 cells from the transiently expressing cells described in Example 20, after a 24 hour incubation period the selection antibiotic Puromycin (catalogue no. A1 1138-03, Life Technologies, California, USA) was added to culture media. Then, for the first 14 days puromycin was at 10 µg ml-1 media; at days 15-28 puromycin was at 20 µg ml-1 media. Cell cultures were seeded at 2.5 x 10^5 cells ml^-1 into fresh culture media and puromycin twice per week through this selection growth period. […]

T1 sequence (P22001 whole entry): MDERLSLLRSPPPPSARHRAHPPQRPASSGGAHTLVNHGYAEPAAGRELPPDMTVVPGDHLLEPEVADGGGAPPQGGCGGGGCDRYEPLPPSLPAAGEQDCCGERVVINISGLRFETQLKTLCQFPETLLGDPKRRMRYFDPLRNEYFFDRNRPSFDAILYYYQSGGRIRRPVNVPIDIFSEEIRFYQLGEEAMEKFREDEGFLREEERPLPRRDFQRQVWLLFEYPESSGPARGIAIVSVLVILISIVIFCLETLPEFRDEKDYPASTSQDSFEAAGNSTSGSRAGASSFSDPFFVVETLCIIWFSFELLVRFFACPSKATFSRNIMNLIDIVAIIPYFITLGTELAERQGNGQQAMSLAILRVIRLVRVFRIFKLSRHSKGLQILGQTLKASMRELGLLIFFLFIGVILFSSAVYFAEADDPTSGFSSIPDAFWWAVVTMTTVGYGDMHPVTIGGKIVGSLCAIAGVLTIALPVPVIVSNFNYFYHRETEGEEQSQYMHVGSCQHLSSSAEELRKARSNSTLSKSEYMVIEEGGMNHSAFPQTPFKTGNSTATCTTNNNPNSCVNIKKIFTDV
T2 sequence (Q09470 whole entry): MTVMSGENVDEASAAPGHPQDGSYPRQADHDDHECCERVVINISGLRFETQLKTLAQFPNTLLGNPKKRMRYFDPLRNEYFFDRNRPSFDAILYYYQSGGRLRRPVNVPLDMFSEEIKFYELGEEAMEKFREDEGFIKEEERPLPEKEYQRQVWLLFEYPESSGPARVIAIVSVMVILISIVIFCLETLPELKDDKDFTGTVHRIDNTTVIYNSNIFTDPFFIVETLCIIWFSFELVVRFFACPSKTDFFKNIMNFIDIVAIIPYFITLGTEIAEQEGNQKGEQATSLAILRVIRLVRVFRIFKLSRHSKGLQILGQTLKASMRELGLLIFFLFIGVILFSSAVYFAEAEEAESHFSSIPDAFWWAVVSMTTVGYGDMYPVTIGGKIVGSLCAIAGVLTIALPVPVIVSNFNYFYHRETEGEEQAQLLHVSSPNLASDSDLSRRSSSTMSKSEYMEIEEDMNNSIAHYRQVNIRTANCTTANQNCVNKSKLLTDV

B1: KB_A12_ShK: ShK toxin in VL CDR2 of KB_A12, IgG1 (antibody, V domains shown)
VH: EVQLVESGGGLVRPGGSLRLSCAASGFTFSSYAMSWVRQAPGKGLEWVSAISGSGGSTYYADSVKGRFTISRDNTKNSLYLQMTSLRADDTAFYYCVKDFGPGYGTGWFDYWGPGTLVTVSS
VL: QSVLTQPPSVSEAPRQRVTITCSGSSSNIGNNAVNWYQQLPGKAPKLLIYAAGRRSCIDTIPKSRCTAFQCKHSMKYRLSFCRKTCGTCANSGVSDRFSAAKSGTSASLAINGLRSEDEADYYCAAWDDSLNGYVFGTGTKLTVLG
B1 registered a Fold difference with human Kv1.3 (huKv1.3) (Kv1.1 IC50 over Kv1.3 IC50, Table E20) of 3. The IC50 with human Kv1.3 (huKv1.3) (four-point curves of FIG. 33, Table E20, read-out: Kv1.3 IC50) was determined as 13 nM; with human Kv1.3 (huKv1.3) (huKv1.3, four-point curves of FIG. 32, Table E19, read-out: IC50), 8.6 nM; in the test with human Kv1.1 (huKv1.1) it was 40 nM.
